Data as given in the nanobody polyreactivity screen of Harvey et al. (2022).

Experiment: yeast display, Sf9 membrane polyspecificity reagent, FACS + sequencing; frameworks hold sequencing errors
Outline: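 Sorting gates, low and high (top ~1%), were placed on anti-HA fluorescence to track expression and on streptavidin fluorescence to track reagent binding. A clone's polyreactivity label is taken from the gate it came out of. The reagent was 10% biotinylated, detergent-solubilized Sf9 membrane, applied for 1 hour at 4 °C to galactose-induced yeast display cells.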

For “QVQLVESGGGLVQAGGSLRLICAASGITFYDYAMGWYRQAPGKERELVAVITRRGGSTYYADSVKGRFTISRDNAKNTVYLQMNSLKPEDTAVYYCAADWRGWSFVRGDDYWGQGTQVTVSS”, the “polyreactivity (PSR sort gate)” value was “high polyreactivity”.
For “QVQLVESGGGLVQAGGSLRLSCAASGRIFFYNAMGWSRQAPGKERELVAAISARGDRTYYADSVKGRFTISRDNAKNTVYLQMNSLKPEDTAVYYCAADYYNYRYDYWGQGTQVTVSS”, the “polyreactivity (PSR sort gate)” value was “high polyreactivity”.
With “QVQLVESGGGLVQAGGSLRLSCAATGRTFSIYAMGWYRQAPGKERELVARIRGGGSTNYADSVKGRFTISRDNAKNTVYLQMNSLKPEDTAVYYCATVYWRYGAHSYRYYYWGQGTQVTVSS” the “polyreactivity (PSR sort gate)” value was “high polyreactivity”.
With “QVQLVESGGPLVKSRGSLRLICAASGRTYCEYSMGWYRQAPGKERELVADITNGSRTYYADSVKGRFTISRDNAKNTVYLQMNSLKPEDTSVYYCAADWWKEVDYWGQGTEVTVSS” the “polyreactivity (PSR sort gate)” value was “low polyreactivity”.
With “QVQLVESGGGLVQAGGSLRLSCAASGSIFKIYAMGWDRQAPGKERELVASITGSGGSTYYADSVKGRFTISRDNAKNTVYLQMNSLKPEDPAVYYCAVEAWSVPPYDYWGQGTQVTVSS” the “polyreactivity (PSR sort gate)” value was “low polyreactivity”.
With “QVQLVESGGGIVQAGGSLRLSCAGSGGILGDNTMGWYGHAPGKERELGASITRGGTTNYADSLTGRFTISREHAKNTVYFQKISLKPVDTAVYYCNAAVERFGDSPDYDYWGQGTQVTVSS” the “polyreactivity (PSR sort gate)” value was “low polyreactivity”.
For “QVQLVESGGGLVQAGGSLRISSAASGSIFLVNALGWYRHAPGKERELVAGISDGGSTYYADSVKGRFTISRDNAKNSVYLLLICLKPEDTAVYFCAAESEQWFSYVLSYDWESDSWGQGSQVTVSS”, the “polyreactivity (PSR sort gate)” value was “low polyreactivity”.
In the case of “QVQLVESGGGLVQAGGSLRLSCAASGSIFRGNAMGWSRQAPAKERELVAAISKSGGSTYYADSVKGRFTISRDNAKNTVYLQMNSLKPEDTAVYYCAARTTYLYGMYYWGQGTQVTVSS”, the “polyreactivity (PSR sort gate)” value is reported as “low polyreactivity”.
With “QVQLVESGGRLVQAGGSLRLSCAASGSIFYGYTMGWYRQAPGKERELVATISGRGGSTYYADSVKGRFTISRDNAKTTVYLQMNSLKPEDTAVYYCNSGKYYYNYGFWGQGTQVTVSS” the “polyreactivity (PSR sort gate)” value was “high polyreactivity”.
With “QVQLVESGGGLVQAGGSLRLSCAASGFTFTYYVMGWYRQAPGKERELVAAITSSGGRTYYADSVKGRFTISRDNAKNTVYLQMNSLKPEDTAVYYCNKGPLPGYDYWGQGTQVTVSS” the “polyreactivity (PSR sort gate)” value was “high polyreactivity”.
In the case of “QVQLVESGGGLVQAGGSLRLSCAASGFIFRPYAMGWYRQAPGKERELVAAITGGGSTYYADSVKGRFTISRDNAKNTVYLQMNSLKPEDTAVYYCAKDKGRAYFGPSPYDYWGQGTQVTVSS”, the “polyreactivity (PSR sort gate)” value is reported as “low polyreactivity”.
For “QVQLVESGGGLVQAGGSLRLSCAASGSIFRGNAMGWYRQAPGKERELVASISYSGGSTYYADSVKGRFTISRDNAKNTVYLQMNSLKPEDTAVYYCAADESVAYPYSGYQYYRHIYDYWGQGTQVTVSS”, the “polyreactivity (PSR sort gate)” value was “low polyreactivity”.
For “QVQLLESGGGLVQAGGSLRLSCAASGLIYVNNPMGWYRKATGKETELVATISSGVSTNYADSVKGRFTISRENAKNSVYLHMNSLKPEDTAVYYCNKGQTVSRGYRLYERYDYWGQGTQVTVSS”, the “polyreactivity (PSR sort gate)” value was “low polyreactivity”.
In the case of “QAQLVESGGGLVQAGGSLRLSCAASGFTFSFNAMGWYRQAPGKERELVAAISSTGSSTYYADSVKGRFTISRDNAKNTVYLQMNSLKPEDTAVYYCAASRRGYRPRRYDYWGQGTQVTVSS”, the “polyreactivity (PSR sort gate)” value is reported as “high polyreactivity”.
With “QVQLVESGLGIVQAGGSLRLSCASSGSTFIFNTMVWYRQAPGKERELVAAIRLSGGSTYYADSVKGRFTISRDNAKNTVYLLINSLNPEDTAVYYCARRLATSGHTYDYWGQGTQVSVSS” the “polyreactivity (PSR sort gate)” value was “low polyreactivity”.
In the case of “QVQLVESGGGLVQAGGSLRLSCAASGRIFGYNAMGWYRQAPGKERELVAAITTSGGSTYYADSVKGRFTISRDNAKNTVYLQMNSLKPEVTAVYYCAGDSLQVFYPYASDDYWGHGTQVTVSS”, the “polyreactivity (PSR sort gate)” value is reported as “low polyreactivity”.
With “QVHLVESGVGLVQAGGSLRLSCAAYGSTCGWYAMGWYRQAPGKERELVASITWDGGRTYYADSVKGRFTISRDNAKNTVYLQMISQKPEDTAVYYCAARGVSSPLNYWGQGNQVTVSS” the “polyreactivity (PSR sort gate)” value was “low polyreactivity”.
In the case of “QVQLVESGGGLVQAGGSLRLSCAASGFIFQVYAMGWYRQAPGKERELVAGISRTGGSTYYADSVKGRFTISRDNAKNTVYLQMNSLKPEDTAVYYCAKPYWGYYGYFTHNYWGQGTQVTVSS”, the “polyreactivity (PSR sort gate)” value is reported as “high polyreactivity”.
For “QVHLVESRGVLVQAGGSLRLSCAASGFTFNRNAMGWYRQAPGKERELVAAISTSGGRTYYADSVKGRFTISRDNAKNTVYLHMNSLKPEDTAVYYCAADGIYPVGVDYWGQGTQVTVSS”, the “polyreactivity (PSR sort gate)” value was “high polyreactivity”.
In the case of “QVQLVESGGGLVQAGGSLRLSCAASGRTIAQYAMGWSRQAPGKERELVAAISSSGGSTYYADSVKGRFTISRDNAKNTVYLQMNSLKPEDTAVYYCAKYGTKAKQYDYWGQGTQVTVSS”, the “polyreactivity (PSR sort gate)” value is reported as “high polyreactivity”.
With “QVQLVESGGGLVQAGGSLRLSCAASGSTFDYYAMGWYRQAPGKERELVAAISGSGDRTYYADSVKGGFTISRDNAKNTVYLQMNSLKREDTAVYYCAKYGRTRFYYWGQVTQVTVSS” the “polyreactivity (PSR sort gate)” value was “high polyreactivity”.
For “QVQLVESGGGLVQAGGSLRLSCAASGSILPLYAMGGYRQAPGKERELVATISNAGSTTYADSVKGRFTISRDNAKNTVYLQMNSLKPEVTAVYYCNAESEWGWVYVGYDYWGQGTQVTVSS”, the “polyreactivity (PSR sort gate)” value was “low polyreactivity”.
In the case of “QVQLVESGVGLVQAGGSLRLRCAASGSIFEGNGMGWYRQAPGKERELVASITRSGGSTYDADSVKGRFTISRDNAQNTVYVQMNSLKPEDTAVYYCAAKGTTYGLTIRWYPYLHGYNYWGQGTQVTVSS”, the “polyreactivity (PSR sort gate)” value is reported as “low polyreactivity”.
For “QVQLVESGGGLVQAGGSLRLSCAASGLTFKWYAMGWYRPAPGKERELVAAISRDGSTYYADSVKGRFTISRDNAKNTVYLQMNSLKPEDTAVYNCAADIWPSSLLADEYDYWGQGTQVTVSS”, the “polyreactivity (PSR sort gate)” value was “high polyreactivity”.
In the case of “QVQLVESVGGLVQAGGSLRLSCAASGRTFAQNALGWYRQAPGKERELVAAIRSGGRTNYADSVKGRFTISRDNAKNTVYLQMNSLKPEDTAVYYCAAEWGYWSFYLGRAKVEYWGQGTQVTVSS”, the “polyreactivity (PSR sort gate)” value is reported as “low polyreactivity”.
In the case of “QVQLVESGGCLVQAGGSLRLSCAASGRTFAWYAMGWYRQAPGKERELVAAITNGGSTYYADSVKGRFTISRDNAKNTVYLQMNSLKPDDTAVYYCAAYYRSRHHGYDSWGQGTQVTVSS”, the “polyreactivity (PSR sort gate)” value is reported as “low polyreactivity”.
In the case of “QVQLVESGGGLVQAGGSLRLSCAASGYTFVIYAMGSYRQAPGKERELVAAITTIGGRTYYADSVKGRFTISRDNAKNNVYLQMNSLKPEDTAVYYCAADIRSNRLYDGGYWGEGTQVTVSS”, the “polyreactivity (PSR sort gate)” value is reported as “low polyreactivity”.
In the case of “QVQLVESGGGLVQAGGSLRLSCAASGRTFNNNAMGWYRQAPGKERELVAAITSGGSTNYADSVKGRFTISRDNAKNTVYLQMNSLKPEDTAVYYCNAGYYSRRYYFSGRLDYWGQGTQVTVSS”, the “polyreactivity (PSR sort gate)” value is reported as “low polyreactivity”.
For “QVQLVESGGGLVQAGGSLRLSCAASGFTFNKYDMGWYRQAPGKERELVAVITWSGGSTYYADSVKGRFTISRDNAKNTVYLQMKSLKPEDTAVYYCNAEAPRYTYGRMDYWGQGTQVTVSS”, the “polyreactivity (PSR sort gate)” value was “low polyreactivity”.
In the case of “QVQLVESGGGLVQAGGSLRLSSAASGSIFGSNAMGWYRPAPVKERELVAAISSGSTYYADSVKGRFTISRDNAKNTVYLQMNSLKPEDTAVYYCYARSLLYEFDYWGQGTQVTVSS”, the “polyreactivity (PSR sort gate)” value is reported as “low polyreactivity”.
For “QVQLVESGGGLVQAGGSLRLSCAASGSTFDYNDMGWYRQAPGKERELVASITFSGGTYDADSVKGRFTISRDNAKTTVYLQMNSLTPEDTAVYYCNAVYFFYIDPWNSYPTYDYWGQGTQVTVSS”, the “polyreactivity (PSR sort gate)” value was “high polyreactivity”.
In the case of “QVQLVESGGGLVQAGVSLRISCAASASILVTNAMGWYRHAPGKERELVAAITSIGGSTNYADSVKGRFTISRDNAKNTVYLQMNSLKPEDTAVYYCAAGIYPTVFWVYYWGQGTQVTVSS”, the “polyreactivity (PSR sort gate)” value is reported as “low polyreactivity”.
In the case of “QVQLVESGGGLVQAGGRLRISCAASGRIFPYNAMGWYRQAPGKERELVAAISFGGGRTYYADSVKGRFTISRDNAKNTVYLQMNSMKPEDTAVYYCNTASPQDIVFRVFYGGDYWGQGTQVTVSS”, the “polyreactivity (PSR sort gate)” value is reported as “low polyreactivity”.
For “QVQLVESGGGLVQAGCSLRLSCAASGFIFWENGLGWYRQAPGKERELVAAISSGGGRTYYADSVKGRFTISRDNAKHTVYLQMNSLKPEDTAVYYCNRARYYREFDFWGQGTQVTVSS”, the “polyreactivity (PSR sort gate)” value was “high polyreactivity”.
In the case of “QVQLVESGGGLFQAGGRLRLSCAASGYTFYLNAMGWYRQAPGKEREFVAVIDDSGDSTDYADSVKGRFTISRDNAKNTVYLQMHSLKPEDTAVYYCAANEGGTGDDYWGQGTQVTVSS”, the “polyreactivity (PSR sort gate)” value is reported as “low polyreactivity”.
In the case of “QVQLVESGGGLVQAGGSLRLSCAASGSTFKRYTMGWYRQAPGKESELVAAISSSGGSTYYADSVKGRFTISRDNAKNTVYLQMNSQKPEDTAVYYCAKGYQRGRDYWGQGTQVTVSS”, the “polyreactivity (PSR sort gate)” value is reported as “high polyreactivity”.
With “QVQLVESGGGLVQAGGSLRLSCAASGSIFYYYAMGCYTQAPGKERELVAAITSGGSTYYADSVNGRFTISRDNAKNSGYLQMNSLKPEDTAVYYCNNAFPYFDDYWGQGTQVTVSS” the “polyreactivity (PSR sort gate)” value was “low polyreactivity”.
In the case of “QVQLVESGGGLVQAGGSLRLSSAASGSIFPYYAMGWYRQAPGKERELVAAISWSGTSTYYADSVKGRFTISRDNAKNTVYLQMNSLKPEDTAVYYCNAGYYHFYASGYDYWGQGTQVTVSS”, the “polyreactivity (PSR sort gate)” value is reported as “low polyreactivity”.
For “QVQLVESGGGLVQAGGSLRLSCAASGSTFVDNAMGWYRQAPGKERELVAAIRDGSGGSTRYADSVKGRFTISRDNAKNTVYLQMNSLKPEDTAVYYCAADGYITVNYLRYDYWGQGTQVTVSS”, the “polyreactivity (PSR sort gate)” value was “low polyreactivity”.
For “QVQLVESGGGLVQAGGSLRLSCAASGSTFNSYARGWYRQAPGTERELVAAITSSVGSTYYADSVKGRFTISRDNAKNTVYLQMNSLKPEDTAVYYCDRDYFNREAFDYWGQGTQVTVSS”, the “polyreactivity (PSR sort gate)” value was “low polyreactivity”.
With “QVQLVESGGGLVQARGSLRLSCAASGSIFFRYTMGWYRPAPGKEWELVATITGSGSSTTYADSVKGRFTISRDNAKNTVYLQMNSLKPEDTAVSYCAAADIIDHSFPYDYWGQGTQVTVSS” the “polyreactivity (PSR sort gate)” value was “low polyreactivity”.
In the case of “QVQLVESGGGLVQAGGSLRLSCAASGFTISRYNMGWYRQAPGKEREMVAAISGSGGSTYYADSVKGRFTISRDNAKNTVYLQMNSLKPEDTAVYYCNAVRNWYYTPWEMNYWGQGTQVTVSS”, the “polyreactivity (PSR sort gate)” value is reported as “high polyreactivity”.
For “QVQLVESGVGLVQAGGSLRLRCAASGITFGTYPMGWYRQAPGKEREFVAGYYADSVKGRFTISRDNAKNTVYLQMNSLKPEDTAVYYCAADYLYHDDVDYWGQGTQVTVSS”, the “polyreactivity (PSR sort gate)” value was “low polyreactivity”.
